A word on the koff: it is the first-order rate constant of dissociation. The kon is a measure of how fast the partners come together. For orientation: Kd means the free concentration of one partner at which half of the binding sites on the other are occupied at equilibrium, for simple one-to-one binding. What is called EC50 is the concentration needed to bring the measured effect to its halfway point. A word on the EC50 (read off the curve): it is the concentration at which the effect is half-maximal. A lower EC50 (read off the curve) goes with an effect from little substance.

Where a chain is given by its changes, count along the chain named.

In test [1] the target is T1, ApoE4 amino acids 1-132, expressed on yeast (human, UniProt P02649 19-150).
T1 construct: with myc tag, on yeast cells; range counts on the mature protein; also called up to helix 3; not shown: myc tag and yeast surface-display partner
T1 chain: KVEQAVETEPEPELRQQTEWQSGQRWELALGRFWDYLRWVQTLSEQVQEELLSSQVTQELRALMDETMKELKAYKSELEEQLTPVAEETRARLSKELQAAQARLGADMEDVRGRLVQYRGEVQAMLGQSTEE
The test is described as follows: yeast display of myc-tagged ApoE4 fragment, antibody staining.

Test [2] concerns the target T2, ApoE4 amino acids 24-125, expressed on yeast (human, UniProt P02649 42-143).
T2 construct: with myc tag, on yeast cells; range counts on the mature protein; also called helix1 + 2 + 3
T2 chain: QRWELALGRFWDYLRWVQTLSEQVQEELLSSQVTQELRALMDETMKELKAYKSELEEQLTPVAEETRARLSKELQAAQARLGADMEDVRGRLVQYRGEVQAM
The test is described as above.

The target in test [3] is T3, recombinant alipidated human ApoE4 (human, UniProt P02649 19-317).
T3 construct: mature; full length recombinant protein made in E. coli or bought; biotinylated for SPR; position 112 is counted on the mature protein, not on the precursor entry; also called recApoE; non-lipidated ApoE4
The test is described as follows: SPR, biotinylated recombinant apoE4 captured on a streptavidin chip; column Kd (1/s). As to the method: (§1) ELISA plates were coated with 0.5 μg/ml of recombinant apoE2 (square), apoE3 (open circle), or apoE4 (closed circle). Then different concentrations of (A) HJ151, (B) HJ153, (C) HJ154, or (D) HJ156 were loaded on the plates. Horse-radish peroxidase labeled goat anti-mouse secondary antibodies were used to detect binding. […] HJ151 is specific for ApoE4 and HJ156 binds only ApoE3 and ApoE4. FIG. 5E-H are graphs depicting surface plasmon resonance profiles for various antibodies. Anti-ApoE antibodies were serially diluted 3-fold (starting at 100 nM for HJ153 (E), and 1000 nM for HJ151 (F), and […] (G)) for detection of binding to biotinylated-recombinant apoE4 captured on a streptavidin chip. Samples were injected at a flow rate of 30 μl/minute. (H) Apparent KD values of HJ151, HJ153 and HJ156 were calculated based on the SPR experiment.
(§2) ELISA plates were coated with 0.5 μg/ml of recombinant apoE2, apoE3, or apoE4. Then different concentrations of HJ151 (FIG. 5A), HJ153 (FIG. 5B), HJ154 (FIG. 5C), or HJ156 (FIG. 5D) were loaded on the plates. Horse-radish peroxidase labeled goat anti-mouse secondary antibodies were used to detect binding. […] HJ151 is specific for ApoE4 and HJ156 binds only ApoE3 and ApoE4. Surface plasmon resonance profiles for various antibodies was also performed.
A general note: Surface plasmon resonance follows binding to a sensor surface in real time, without labels.

Test [4] addresses T3, recombinant alipidated human ApoE4. The test is described as follows: SPR, biotinylated recombinant apoE4 captured on a streptavidin chip; column Ka (1/Ms). On the procedure: as §1, §2
For test [5] the target is unchanged. The test is described as follows: SPR (Biacore T200), biotinylated ApoE4 captured on anti-biotin mAb chip, antibody injected, 1:1 fit. In short, it runs like this:
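Biotinylated recombinant alipidated human ApoE4 (E. coli-expressed or commercial) captured on immobilized anti-biotin mAb; antibody serial dilutions injected at 30 μl/min, e.g. 3-min association, 10-min dissociation. Responses reference-subtracted against irrelevant-IgG flow cell; kinetics from 1:1 Langmuir simultaneous fit of Kon and Koff.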

Test [6] concerns the target T4, recombinant alipidated human ApoE3 (human, UniProt P02649 19-317).
T4 construct: mature; full length recombinant protein made in E. coli or bought
The test is described as follows: direct ELISA on coated recombinant alipidated ApoE (0.5 ug/ml). In outline:
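Antibody dose-response curves were built by HRP-conjugated goat anti-mouse IgG detection of anti-ApoE antibodies bound to blocked plates. The coat was full-length alipidated recombinant ApoE at 0.5 μg/ml, applied overnight, either E. coli-expressed and purified or commercially sourced.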
(ELISA stands for enzyme-linked immunosorbent assay.)

The target of test [7] is T5, heat-induced aggregates of ApoE3 (human, UniProt P02649 19-317).
T5 construct: mature; aggregated state of the recombinant protein; also called heat treated ApoE3
Nature of the test: ELISA: pellet of heat-aggregated ApoE3 coated at 0.5 ug/ml, antibody titrated, HRP goat anti-mouse IgG, OD650. As to the method: The aggregated ApoE was induced by incubating ApoE at 1 mg/ml concentration at 40° C. for 24 hours. The aggregates then were recovered in the pellet fraction following ultracentrifugation at 186,000 g for 1 hour. For ELISA, the untreated ApoE or heat-induced aggregates of ApoE were coated directly to ELISA plates at 0.5 μg/ml overnight at 4° C. After three washes with PBS, the wells were blocked with 1% BSA-PBS for 1 hour at room temperature with shaking at 500 rpm. The blocked wells were washed once with PBS and subsequently loaded with antibodies at serial concentrations (starting at 100 nM with 5-fold dilutions thereafter). Bound antibodies were detected with HRP-labeled goat anti-mouse IgG (Jackson Immunoresearch) and visualized with TMB substrate at OD₆₅₀ (reaction stopped with BioFX stop solution).

T3 sequence (P02649 19-317 C130R): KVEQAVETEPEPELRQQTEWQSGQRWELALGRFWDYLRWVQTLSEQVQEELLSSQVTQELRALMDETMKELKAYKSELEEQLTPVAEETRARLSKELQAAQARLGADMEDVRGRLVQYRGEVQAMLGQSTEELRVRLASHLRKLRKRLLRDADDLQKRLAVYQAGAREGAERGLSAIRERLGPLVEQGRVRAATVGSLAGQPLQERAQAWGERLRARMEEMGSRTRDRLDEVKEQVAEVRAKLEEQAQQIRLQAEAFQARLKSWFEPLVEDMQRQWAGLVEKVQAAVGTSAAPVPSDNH
T4 sequence (P02649 19-317): as the sequence (P02649 19-317 C130R) above, with R112C counted along it
T5 sequence (P02649 19-317): as the sequence (P02649 19-317 C130R) above, with R112C counted along it

B1: HJ151 (antibody, V domains shown)
VH: QVQLQQSGAELVRPGASVTLSCKASGYTFTDYEMHWVKQTPVHGLEWIGVIDPEKGGTAYNQKFKGKAILTADKSSSTAYMDLRSLTSEDSAVYYCLKDSWGQGTTLTVSS
VL: DVLMTQTPLSLPVSLGDQASISCRSSQTIVHSDGNTYLEWYLQKPGQSPKLLIYKVSNRFSGVPDRFSGSGSGTYFTLKISRVEAEDLGVYYCFQGSHVPCTFGGGTKLEIKR
notes: murine monoclonal antibody from hybridoma; also called HJ151B (biotinylated)
Consider B1, for which the binding result in test [1] and in test [2] was “binds” throughout. For the same molecule, the koff in test [3] and in test [5] was 0.00119 s⁻¹ throughout. In addition, the on-rate (kon) in test [4] and in test [5] was 19700 M⁻¹ s⁻¹ throughout. The Kd in test [5] was 60.2 nM.

B2: HJ156 (antibody, V domains shown)
VH: QVQLQQSGPELVKPGASVKISCKASGYIFTDYYINWVKRRPGQGLEWIGWIFPGSGVSYYNEQFKGKATLTVDKPSNTAYIFLSRLTSEDSAVYFCARYYSSSPFAYWGQGTLVTVSA
VL: B1 VL with T28N, V30I, D33N, Y41F, K44R, K50E, Y75D, C101Y
notes: murine monoclonal antibody from hybridoma; also called HJ156B (biotinylated)
Take B2: the EC50 in test [6] amounted to 1.69 nM. The dissociation rate constant (koff) in test [3] was found to be 0.00523 s⁻¹; in test [5] it was 0.00449 s⁻¹. Also, the on-rate (kon) was 26400 M⁻¹ s⁻¹ in test [4] and 20700 M⁻¹ s⁻¹ in test [5]. The Kd in test [5] amounted to 216 nM. Also, in test [7], the half-maximal effective concentration (EC50 (read off the curve)) was ~0.09 nM.

B3: HJ154 (antibody, V domains shown)
VH: QVQLQQPGTEFVMSGASVMLSCKASGYIFTNYWLHWVKQRPGHGLEWIGEIDPSDSYSICNDNFKGKSTLTVDKSSSTAYMQLSSLTSEDSAVYYCAGSLGRVGLAYWGQGTLVTVST
VL: QIVLTQSPAIMSASPGEKVTMSCSASSSVSNMYWYQQKPGSSPKSWIYRTSNLASGVPARFSGSGSGTSYSLTISNMEAEDAATYYCQHYQNYPLTFGAGTKLELKR
notes: murine monoclonal antibody from hybridoma; also called HJ154B (biotinylated)
As for B3, the binding result in test [1] is recorded as “binds”. Besides, in test [2], the binding result was “binds”. Moreover, the EC50 in test [6] came to 0.24 nM. Besides, in test [5], the Kd came out at 0.675 nM, the koff was determined as 0.000348 s⁻¹ and the association rate constant (kon) is 516000 M⁻¹ s⁻¹. Besides, in test [7], the half-maximal effective concentration (EC50 (read off the curve)) lay within 0.16 to 0.2 nM.

(Values after patent US20250145697A1 (WASHINGTON UNIVERSITY, published 2025).)
